Literature values in paper PMC7866199.

Experiments:
[1] = molecular target: GRK6A C-terminal PDZ ligand (Homo sapiens) (UniProt P43250)
[2] = molecular target: NPT2A C-terminal 22 aa (Homo sapiens) (UniProt Q06495)
Sequence of UniProt Q06495 (Q06495 618-639): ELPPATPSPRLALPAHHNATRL

Sequence of UniProt P43250 (P43250 555-576): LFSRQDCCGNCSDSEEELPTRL

## NHERF1 (from UniProt O14745)
[1]
  Kd: 4 µM
[2]
  Kd: 4 µM
